The record followed here is patent publication US20050272635A1 (published 2005).

For this assay, the target named is T1, glycoprotein hormone beta 5 (GPHB5) (human, UniProt Q86YW7 25-130, one N-linked glycosylation (position not given)).
T1 construct: Secreted from the CHO 180 cell line co-expressing GPHA2 and GPHB5; also called beta subunit of CGH
T1 sequence: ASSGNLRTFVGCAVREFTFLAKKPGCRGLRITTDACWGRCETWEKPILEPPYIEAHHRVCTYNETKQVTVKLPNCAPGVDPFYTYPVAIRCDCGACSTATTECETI
As to the kind of experiment: co-expression in CHO cells; secreted heterodimer.

B1: glycoprotein hormone alpha2 (GPHA2) (ligand)
chain: QEAVIPGCHLHPFNVTVRSDRQGTCQGSHVAQACVGHCESSAFPSRYSVLVASGYRHNITSVSQCCTISGLKKVKVQLQCVGSRREELEIFTARACQCDMCRLSRY
modifications: two N-linked glycosylations (positions not given)
notes: Secreted from the CHO 180 cell line co-expressing GPHA2 and GPHB5; also called Zsig51; alpha subunit of CGH
With B1, the binding result was “binds”.
